The test system of this data set is Escherichia coli TOP10. The data set can be described thus: shrunken log2 fold change of peptide-encoding DNA abundance (4.5 h post-induction vs induction); higher = less antimicrobial activity (less host growth inhibition). Conditions: time post-induction: 4.5 h; library: site-saturation at positions 5, 18, 19, 20.
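Further: peptides expressed intracellularly from a pBAD plasmid library in pooled LB shake-flask culture, induced with 0.3% L-arabinose, DNA abundance read by NGS, three biological replicates, DESeq2 with apeglm shrinkage.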

Turning to RRIRWRPPRLPRPRPRPPIEPRP, the “shrunken log2 fold change” value was found to be 0.702.

Take RRIRWRPPRLPRPRPRPFVYPRP: the “shrunken log2 fold change” value was -0.428.

For the sequence RRIRMRPPRLPRPRPRPQQQPRP, the “shrunken log2 fold change” value was 0.246.

RRIRTRPPRLPRPRPRPHQAPRP: the “shrunken log2 fold change” value was -0.00677.

As to RRIRDRPPRLPRPRPRPSVNPRP, the “shrunken log2 fold change” value amounted to 0.0833.

For the sequence RRIRKRPPRLPRPRPRPVCLPRP, the “shrunken log2 fold change” value worked out at 0.0948.

Regarding RRIRFRPPRLPRPRPRPDAHPRP, the “shrunken log2 fold change” value was -0.0702.

Consider RRIRTRPPRLPRPRPRPFHCPRP, for which the “shrunken log2 fold change” value was -0.179.

As to RRIRSRPPRLPRPRPRPTGNPRP, the “shrunken log2 fold change” value was -0.275.

As for RRIRMRPPRLPRPRPRPYVYPRP, the “shrunken log2 fold change” value was -0.175.

Turning to RRIRQRPPRLPRPRPRPHTNPRP, the “shrunken log2 fold change” value was -0.814.

For the sequence RRIRQRPPRLPRPRPRPCDRPRP, the “shrunken log2 fold change” value was -0.0449.

RRIRDRPPRLPRPRPRPISPPRP: the “shrunken log2 fold change” value was -0.036.

RRIRCRPPRLPRPRPRPFTCPRP: the “shrunken log2 fold change” value is -0.223.

RRIRYRPPRLPRPRPRPADFPRP: the “shrunken log2 fold change” value is -0.0123.

On to RRIRGRPPRLPRPRPRPGWQPRP, for which the “shrunken log2 fold change” value is 0.0826.

On to RRIRARPPRLPRPRPRPNLQPRP, for which the “shrunken log2 fold change” value amounted to 0.177.

In the case of RRIRRRPPRLPRPRPRPENIPRP, the “shrunken log2 fold change” value was -0.468.

For the sequence RRIRDRPPRLPRPRPRPREYPRP, the “shrunken log2 fold change” value is 0.306.

On to RRIRGRPPRLPRPRPRPLCAPRP, for which the “shrunken log2 fold change” value amounted to 1.55.

As for RRIRTRPPRLPRPRPRPFQLPRP, the “shrunken log2 fold change” value was -0.138.

RRIRWRPPRLPRPRPRPPRCPRP: the “shrunken log2 fold change” value stood at 0.483.

For the sequence RRIRWRPPRLPRPRPRPSGFPRP, the “shrunken log2 fold change” value amounted to 0.121.

In the case of RRIRLRPPRLPRPRPRPLTDPRP, the “shrunken log2 fold change” value is 0.133.

For RRIRFRPPRLPRPRPRPMIPPRP, the “shrunken log2 fold change” value is 0.00508.

Regarding RRIRHRPPRLPRPRPRPIAFPRP, the “shrunken log2 fold change” value is -0.362.

Consider RRIRIRPPRLPRPRPRPYVHPRP, for which the “shrunken log2 fold change” value was -0.189.

Take RRIRVRPPRLPRPRPRPKEEPRP: the “shrunken log2 fold change” value is 0.00911.

RRIRMRPPRLPRPRPRPWTQPRP: the “shrunken log2 fold change” value was -0.0562.

Consider RRIRLRPPRLPRPRPRPIGAPRP, for which the “shrunken log2 fold change” value was -0.0568.

Take RRIRGRPPRLPRPRPRPPQGPRP: the “shrunken log2 fold change” value came out at 0.812.

For the sequence RRIRSRPPRLPRPRPRPEIIPRP, the “shrunken log2 fold change” value was -0.0448.

RRIRFRPPRLPRPRPRPPDYPRP: the “shrunken log2 fold change” value is -0.026.

In the case of RRIRQRPPRLPRPRPRPARQPRP, the “shrunken log2 fold change” value was found to be 0.182.

Take RRIRMRPPRLPRPRPRPPPVPRP: the “shrunken log2 fold change” value was found to be 1.65.

As for RRIRGRPPRLPRPRPRPFRNPRP, the “shrunken log2 fold change” value worked out at 0.0285.

On to RRIRARPPRLPRPRPRPPWEPRP, for which the “shrunken log2 fold change” value stood at 0.558.

As for RRIRFRPPRLPRPRPRPSSLPRP, the “shrunken log2 fold change” value was -0.856.

In the case of RRIRERPPRLPRPRPRPINDPRP, the “shrunken log2 fold change” value was -0.223.

As for RRIRGRPPRLPRPRPRPFIRPRP, the “shrunken log2 fold change” value is -0.257.

Consider RRIRCRPPRLPRPRPRPYHGPRP, for which the “shrunken log2 fold change” value is -0.968.

In the case of RRIRTRPPRLPRPRPRPGPNPRP, the “shrunken log2 fold change” value is -0.0314.

As to RRIRYRPPRLPRPRPRPWMVPRP, the “shrunken log2 fold change” value was -0.523.

Turning to RRIRHRPPRLPRPRPRPGRKPRP, the “shrunken log2 fold change” value is 0.00144.

Take RRIRCRPPRLPRPRPRPCWNPRP: the “shrunken log2 fold change” value is -0.49.

As for RRIRERPPRLPRPRPRPLVTPRP, the “shrunken log2 fold change” value was 0.503.

Turning to RRIRVRPPRLPRPRPRPMYPPRP, the “shrunken log2 fold change” value was -0.413.

In the case of RRIRHRPPRLPRPRPRPNRQPRP, the “shrunken log2 fold change” value is -0.0122.

For RRIRARPPRLPRPRPRPHHQPRP, the “shrunken log2 fold change” value is -0.0146.

On to RRIRLRPPRLPRPRPRPCMPPRP, for which the “shrunken log2 fold change” value is -0.579.

RRIRDRPPRLPRPRPRPRKDPRP: the “shrunken log2 fold change” value was -0.108.

Turning to RRIRQRPPRLPRPRPRPEQLPRP, the “shrunken log2 fold change” value is -0.0643.

For the sequence RRIRDRPPRLPRPRPRPCRWPRP, the “shrunken log2 fold change” value is -0.537.

Regarding RRIRFRPPRLPRPRPRPDRYPRP, the “shrunken log2 fold change” value was -0.0446.

Consider RRIRLRPPRLPRPRPRPMMAPRP, for which the “shrunken log2 fold change” value is -0.137.

For RRIRFRPPRLPRPRPRPRYRPRP, the “shrunken log2 fold change” value is -0.4.

For RRIRFRPPRLPRPRPRPICLPRP, the “shrunken log2 fold change” value was -0.548.

With RRIRGRPPRLPRPRPRPPLAPRP, the “shrunken log2 fold change” value turned out to be 1.35.

For the sequence RRIRHRPPRLPRPRPRPWNYPRP, the “shrunken log2 fold change” value was -0.617.

Regarding RRIRDRPPRLPRPRPRPDVHPRP, the “shrunken log2 fold change” value was 0.244.

As to RRIRGRPPRLPRPRPRPCMKPRP, the “shrunken log2 fold change” value stood at 0.507.

Take RRIRVRPPRLPRPRPRPTCTPRP: the “shrunken log2 fold change” value is -0.00861.

As for RRIRGRPPRLPRPRPRPTTIPRP, the “shrunken log2 fold change” value is 0.623.

For the sequence RRIRGRPPRLPRPRPRPPYNPRP, the “shrunken log2 fold change” value is -0.163.

Consider RRIRKRPPRLPRPRPRPVRSPRP, for which the “shrunken log2 fold change” value came to 2.24.

As to RRIRNRPPRLPRPRPRPDVFPRP, the “shrunken log2 fold change” value is -0.199.

On to RRIRNRPPRLPRPRPRPICDPRP, for which the “shrunken log2 fold change” value was -0.119.

Regarding RRIRTRPPRLPRPRPRPIWMPRP, the “shrunken log2 fold change” value was -0.101.

RRIRKRPPRLPRPRPRPQGSPRP: the “shrunken log2 fold change” value was -0.0103.

Take RRIRNRPPRLPRPRPRPYEDPRP: the “shrunken log2 fold change” value was -0.173.

Consider RRIRWRPPRLPRPRPRPEWPPRP, for which the “shrunken log2 fold change” value was found to be 0.956.

As to RRIRERPPRLPRPRPRPLCQPRP, the “shrunken log2 fold change” value is 0.00385.

For RRIRCRPPRLPRPRPRPEVHPRP, the “shrunken log2 fold change” value is -0.328.

As for RRIRTRPPRLPRPRPRPPRIPRP, the “shrunken log2 fold change” value is 0.27.

In the case of RRIRIRPPRLPRPRPRPFHNPRP, the “shrunken log2 fold change” value is -0.213.

Consider RRIRIRPPRLPRPRPRPLWFPRP, for which the “shrunken log2 fold change” value was -0.257.

For RRIRYRPPRLPRPRPRPDFQPRP, the “shrunken log2 fold change” value is -0.409.

Turning to RRIRTRPPRLPRPRPRPWVHPRP, the “shrunken log2 fold change” value was -0.0467.

With RRIRCRPPRLPRPRPRPFYCPRP, the “shrunken log2 fold change” value is -0.645.

In the case of RRIRMRPPRLPRPRPRPEAQPRP, the “shrunken log2 fold change” value came to 3.76.

RRIRCRPPRLPRPRPRPLKYPRP: the “shrunken log2 fold change” value was -0.566.

With RRIRKRPPRLPRPRPRPPVPPRP, the “shrunken log2 fold change” value amounted to 0.794.

As for RRIRSRPPRLPRPRPRPCWVPRP, the “shrunken log2 fold change” value is -0.272.

With RRIRMRPPRLPRPRPRPWMAPRP, the “shrunken log2 fold change” value was -0.0347.

As for RRIRHRPPRLPRPRPRPKDTPRP, the “shrunken log2 fold change” value is -0.15.

For the sequence RRIRLRPPRLPRPRPRPCKYPRP, the “shrunken log2 fold change” value is -0.0018.

Turning to RRIRHRPPRLPRPRPRPLWWPRP, the “shrunken log2 fold change” value came out at 0.237.

On to RRIRARPPRLPRPRPRPFESPRP, for which the “shrunken log2 fold change” value worked out at 0.0991.

For the sequence RRIRSRPPRLPRPRPRPTKGPRP, the “shrunken log2 fold change” value was -0.0226.

With RRIRRRPPRLPRPRPRPRQKPRP, the “shrunken log2 fold change” value is 0.857.

Turning to RRIRCRPPRLPRPRPRPVLFPRP, the “shrunken log2 fold change” value is -0.101.

With RRIRSRPPRLPRPRPRPKQEPRP, the “shrunken log2 fold change” value was found to be 0.286.

Take RRIRKRPPRLPRPRPRPMNQPRP: the “shrunken log2 fold change” value was -0.153.

With RRIRARPPRLPRPRPRPLGMPRP, the “shrunken log2 fold change” value was 0.0985.

For RRIRARPPRLPRPRPRPGQQPRP, the “shrunken log2 fold change” value was 0.209.

In the case of RRIRIRPPRLPRPRPRPQRLPRP, the “shrunken log2 fold change” value was found to be 0.0966.

As for RRIRLRPPRLPRPRPRPQFIPRP, the “shrunken log2 fold change” value is -0.433.

Regarding RRIRVRPPRLPRPRPRPQVCPRP, the “shrunken log2 fold change” value was -0.0138.

As for RRIRQRPPRLPRPRPRPEHHPRP, the “shrunken log2 fold change” value was -0.136.

Consider RRIRERPPRLPRPRPRPTYSPRP, for which the “shrunken log2 fold change” value is -0.578.

Turning to RRIRARPPRLPRPRPRPRIHPRP, the “shrunken log2 fold change” value was -0.145.

As to RRIRCRPPRLPRPRPRPPVRPRP, the “shrunken log2 fold change” value came out at 0.519.

As to RRIRGRPPRLPRPRPRPAENPRP, the “shrunken log2 fold change” value was 0.996.

Turning to RRIRRRPPRLPRPRPRPRKNPRP, the “shrunken log2 fold change” value was 0.179.

For the sequence RRIRVRPPRLPRPRPRPAVVPRP, the “shrunken log2 fold change” value came to 0.213.

For the sequence RRIRTRPPRLPRPRPRPYDHPRP, the “shrunken log2 fold change” value was -0.097.

Take RRIRQRPPRLPRPRPRPANVPRP: the “shrunken log2 fold change” value was -0.105.

As to RRIRTRPPRLPRPRPRPRQLPRP, the “shrunken log2 fold change” value was found to be 0.187.

In the case of RRIRERPPRLPRPRPRPYNRPRP, the “shrunken log2 fold change” value is -0.112.

On to RRIRSRPPRLPRPRPRPGECPRP, for which the “shrunken log2 fold change” value was -0.181.

Regarding RRIRERPPRLPRPRPRPMPMPRP, the “shrunken log2 fold change” value is -0.0464.

RRIRQRPPRLPRPRPRPGASPRP: the “shrunken log2 fold change” value stood at 0.326.

Regarding RRIRTRPPRLPRPRPRPDYHPRP, the “shrunken log2 fold change” value is -0.699.

Take RRIRGRPPRLPRPRPRPTRKPRP: the “shrunken log2 fold change” value was determined as 1.12.

Consider RRIRWRPPRLPRPRPRPPWIPRP, for which the “shrunken log2 fold change” value was 1.44.

Turning to RRIRHRPPRLPRPRPRPMMCPRP, the “shrunken log2 fold change” value is -0.0874.

On to RRIRVRPPRLPRPRPRPQCNPRP, for which the “shrunken log2 fold change” value was -0.449.

For the sequence RRIRFRPPRLPRPRPRPPPTPRP, the “shrunken log2 fold change” value is 1.39.

As to RRIRFRPPRLPRPRPRPTPLPRP, the “shrunken log2 fold change” value turned out to be 0.3.

Consider RRIRLRPPRLPRPRPRPWQGPRP, for which the “shrunken log2 fold change” value was -0.00192.

For RRIRGRPPRLPRPRPRPCAAPRP, the “shrunken log2 fold change” value was found to be 1.89.

With RRIRCRPPRLPRPRPRPPIEPRP, the “shrunken log2 fold change” value was -0.0198.

With RRIRFRPPRLPRPRPRPWPLPRP, the “shrunken log2 fold change” value is -0.0977.

For RRIRFRPPRLPRPRPRPSPLPRP, the “shrunken log2 fold change” value was -0.0981.

As to RRIRSRPPRLPRPRPRPDRVPRP, the “shrunken log2 fold change” value was -0.144.
